Test results as given in patent US20260152571A1.

How the values were obtained:
[1] = target: HLA-A2 on T2 cells without added peptide (human); test: flow cytometry, T2 cells without peptide, antibody 10 µg/mL
[2] = target: PIGQ/HLA complex on PIGQ-pulsed T2 cells (human); test: flow cytometry, T2 cells pulsed with 25 µM PIGQ peptide, antibody 10 µg/mL
[3] = target: MED13L/HLA complex on MED13L-pulsed T2 cells (human); test: flow cytometry, T2 cells pulsed with 25 µM MED13L peptide, antibody 10 µg/mL

Percentage of Positive Cells (%) [1] [%]	Percentage of Positive Cells (%) [2] [%]	Percentage of Positive Cells (%) [3] [%]	Binder
5.32	5.12	5.12	1G7-IgG1-SI (antibody, V domains shown) VH: QVQLVESGGGVVRPGGSLRLSCTASGFTFDDYGMTWVRQAPGKGLEWVSGINWNGGSTGYADSVKGRFTISRDNAKNSLFLQMNSLRAEDTALYYCARDQGIAVVGTHYYYYYGMDVWGQGTAVTVSS VL: EIVLTQSPATLSLSPGERATLSCRASQSFSSYLAWYQQKPGQAPRLLIFDTSNRATGIPARFSGSGSGTDFTLTISSLEPEDFAVYYCQQRSNWPLTFGGGTKVEIK
7.67	7.37	13.1	4F10-IgG1-SI (antibody, V domains shown) VH: QVQLQESGPGLVKPSETLSLTCTVSGGSISNYYWSWIRQPPGKGLEWIGYIYYSGSTNYNPSLKSRVNISVDTSKSQVSLKLNSVIAADTAVYYCARHEDYWYFDLWGRGTLVTVSS VL: DIQLTQSPSSLSASIRDRVTITCRASQDINNYLAWFQQKPGKAPKSLIYAVSSLESGVPSKFSGSGSGTDFTLTISSLQPEDFATYFCQQYNSYPFTFGPGTKVEIK
5.77	5.2	5.72	3A6-IgG1-SI (antibody, V domains shown) VH: QVQLQESGPGMVKPSETLSLTCTVSGGSISYNYWSWIRQPPGKGLEWIGYIYHSGTTKYNPSLKSRVTMSVDTSKNHFSLKLNSVTAADTAVYYCARHEDYWFFDLWGRGTLVTVSS VL: DIQMTQSPSSLSASVGDRVTITCRASQGISNYLVWFQQKPGKAPKSLIYAASILQSGVPSKFSGSGSGTDFTLTINSLQPEDFATYYCQQYNTYPFTFGPGTKVDIK
4.65	4.93	5.87	P01264-IgG1-SI (antibody, V domains shown) VH: EVQLVESGGGLVKPGGSLRLSCAASGFTFSNAWMNWVRQAPGKGLEWVGRIKSKTDGGTTDYAAPVKGRFTISRHDSKNTLYLQMNSLKTEDTAVYYCATDPRIAVTGTDYYYGMDVWGQGTTVTVSS VL: DIVMTQTPSFLSASVGDRVTITCRASQDISNYLNWYQQKPGKAPKLLIYDASNLETGVPSRFSGSGSGTDFTFTISSLQPEDIATYYCQQYDNLPITFGQGTRLEIK
4.66	5.13	7.68	7B9-IgG1-SI (antibody, V domains shown) VH: EVQLVESGGGVVQPGGSLRLSCAASGFTFDDYAMHWVRQAPGKGLEWVSLISGDDGSTYYADSMKGRITISRDNSKNSLYLQMNSLRTEDTAMYYCAKASYGSGSYLYNYGMDVWGQGTTVTVFS VL: DIQLTQSPSSLSASVGDRVTITCQASQDIINYLNWYQQKPGKAPKLLIYDTSNLETGVPSRFSGSGSGTDFAFTINSLQPEDIATYYCQQFVNLPLTFGGGTKVEIK
